# Fewer inactive variants are shown than the library holds.
# B1: TPR 5TU (parent)
# chain: GGAUCUUCUCGAUCUAACAAAAAAGACAAAUCUGCCACAAAGCUUGAGAGCAUCUUCGGAUGCAGAGGCGGCAGCCUUCGGUGGCGCGAUAGCGCCAACGUUCUCAACUAUGACACGCAAAACGCGUGCUCCGUUGAAUGGAGUUUAUCAUG
# Variants of: B1
# Experiment: polymerase ribozyme fitness, log enrichment relative to wild type (log ratio); higher = more active; in vitro selection for triplet polymerase activity
# How it was run: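 Both subunits of a heterodimeric triplet polymerase ribozyme were given their own mutant library, built by PCR and transcribed. Each library was annealed with a biotinylated primer, the partner subunit and triplets, incubated frozen at −7 °C, and its extended constructs gel-excised, captured on streptavidin beads and amplified by RT-PCR, all in one round done in triplicate. Fitness is the logarithm of genotype enrichment relative to wild-type enrichment, with replicates averaged by inverse-variance weighting. That logarithm is base 2, and Illumina-sequenced genotypes needed ≥10 input reads and ≥1 read per output.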
row,Variant,polymerase ribozyme fitness (log ratio)
1,C96U C116U,-0.186
2,C96U C116G,0.963
3,C105G C116U U145A,-0.747
4,U102A C114A,-4
5,A120U U148G,-3.59
6,G94C A138G G141A G143A,≤ -4.2
7,A113U U127C,-2.98
8,C95U C132G A150U,-3.31
9,C103U U134G G141C,-4.14
10,U104A C125A,-0.813
11,G94C U101A C105G G141C,≤ -4.2
12,A119G A120U,0.0433
13,A121U U135A,-0.658
14,A107C A147U,-3.71
15,C99U G140U,-3.37
16,C99U G140C,-3.43
17,G94A A115U C125U C132U A147U,≤ -4.2
18,C99G A119C,-0.2
19,G94C C99U,-0.0105
20,C116A A142G,0.244
21,C93U G133C U134A G140A,≤ -4.2

row,Variant,polymerase ribozyme fitness (log ratio)
1,C93U G126A U139C,-4.1
2,U104G A120G,-0.0889
3,C116U A120G,-0.0851
4,G126A G141U,-2.59
5,A106C U109G,-0.424
6,A120C G152A,-2.33
7,A115U U134G,-3.31
8,U102G U144C,-3.06
9,C103U G128A,-3.93
10,U102G C116U,-2.66
11,C93U G140C,-3.57
12,C93U G140A,-3.82
13,G94C C131U U135G G152A,-3.32
14,G117A A150C,-3.86
15,C123G G133U,-3.68
16,G94A C105G,-1.68
17,A119U G124U U146A,-0.483
18,C96U U101G,0.195
19,A122U G136U,-2.24
20,C125G G126A,-3.42
21,A98G C103A,-0.961

row,Variant,polymerase ribozyme fitness (log ratio)
1,U101C A106G,0.00894
2,G117A G141C,-3.29
3,A115G C129G,-3.64
4,A106G C116U U139A,≤ -4.2
5,G94U A98U G141A,0.104
6,C116U C118G,0.0696
7,A98G C99G A122U,-1.25
8,C96U A115U U145A,-1.79
9,C96U U134C,-0.883
10,A106C G141U,0.961
11,C96U A119C,-1.05
12,C96A G124U C149G,-3.82
13,A107C A119G C125A,≤ -4.2
14,C96A A138U G140U,≤ -4.2
15,A113C C118A C125U,≤ -4.2
16,A110C G140A,≤ -4.2
17,G94U G141U,-0.082
18,A106C A107G,-4.18
19,U109C G117A U146A,-3.86
20,C118U U145G,-1.09
21,C123U A137G,-0.927

row,Variant,polymerase ribozyme fitness (log ratio)
1,U102G U111G,≤ -4.2
2,C95U C125U,-0.278
3,C96G A98U G100A C108G G133C,≤ -4.2
4,C95U C149U,-0.647
5,C95U C149G,-3.59
6,A121U U127C G143C,-4.06
7,C118U A147C,0.751
8,C96U U146G,-1.29
9,U109G C116U,-1.39
10,C99A C123G U145G,0.0034
11,C96U C114U A147C,-4.07
12,C96U A115G U148A,-3.95
13,C96A G126A,-1.95
14,C96U U135C G140U,-3.67
15,A97U A137U,≤ -4.2
16,G94C A150G,-1.6
17,A98U G141A,-0.0351
18,A98U G141C,-0.0983
19,C95A C96G U144C,-2.34
20,C114G G140U,-3.9
